Measurements as given in patent US20260242478A1 (published 2026).
Where no end group is shown, it is not given here.

B1: Peptide-287 (peptide)
peptide: PERLCTPPWMCLGF
notes: From the Peptide-180 optimisation phage library
B2: Peptide-281 (peptide)
peptide: VNHWCVPTWMCAGF
notes: as for B1
B3: Peptide-280 (peptide)
peptide: TTHVCIPSWMCSGF
notes: as for B1
B4: Phage-51 clonal phage peptide (peptide, not shown: large carriers)
peptide: MDWCPMDLWDYCFN
modifications: cysteine pairing not given here; also: displayed on phage by fusion to pIII, linker and pIII sequence not given here
B5: Phage-54 clonal phage peptide (peptide, not shown: large carriers)
peptide: MNWCPRDMWYQCFN
modifications: cysteine pairing not given here; also: displayed on phage by fusion to pIII, linker and pIII sequence not given here
B6: Phage-53 clonal phage peptide (peptide, not shown: large carriers)
peptide: MDWCPMHLWNKCFN
modifications: cysteine pairing not given here; also: displayed on phage by fusion to pIII, linker and pIII sequence not given here
B7: Phage-49 clonal phage peptide (peptide, not shown: large carriers)
peptide: MSWCPIHLWNECFN
modifications: cysteine pairing not given here; also: displayed on phage by fusion to pIII, linker and pIII sequence not given here
B8: Phage-55 clonal phage peptide (peptide, not shown: large carriers)
peptide: QDWCPRHMWSFCFH
modifications: cysteine pairing not given here; also: displayed on phage by fusion to pIII, linker and pIII sequence not given here
B9: Phage-50 clonal phage peptide (peptide, not shown: large carriers)
peptide: MDWCPPYLWNVCFS
modifications: cysteine pairing not given here; also: displayed on phage by fusion to pIII, linker and pIII sequence not given here
B10: Phage-52 clonal phage peptide (peptide, not shown: large carriers)
peptide: MDWCPINLWDECFS
modifications: cysteine pairing not given here; also: displayed on phage by fusion to pIII, linker and pIII sequence not given here

What follows are binders tested against T1, anti-CD28 scFv (VH - linker 1 - VL) (biotinylated (site not given)) (assay: phage ELISA as above; wells pre-incubated with soluble CD28 as competitor;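 further: crude clonal phage supernatants tested, with bound phage detected by HRP-conjugated anti-M13 antibody, and reference wells given blocking buffer without CD28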).
T1 construct: Biotinylated scFv captured on neutravidin coated plates in the panning ELISA
T1 sequence (scFv, as listed by the source): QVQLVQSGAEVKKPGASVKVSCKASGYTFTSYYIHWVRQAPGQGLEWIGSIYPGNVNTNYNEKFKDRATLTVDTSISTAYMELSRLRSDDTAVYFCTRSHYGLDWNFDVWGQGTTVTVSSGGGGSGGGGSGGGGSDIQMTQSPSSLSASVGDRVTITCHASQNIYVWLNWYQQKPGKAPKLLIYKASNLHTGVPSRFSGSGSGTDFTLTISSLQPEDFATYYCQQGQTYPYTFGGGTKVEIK
MDWCPRYLWNVCFN [Phage-105] was tested, and the “CD28 scFv signal in presence of CD28” value was 0.57.
In the case of MDWCPRALWHECFT [Phage-108], the “CD28 scFv signal in presence of CD28” value is reported as 0.191.
For MDWCPRSLWHYCFA [Phage-101], the “CD28 scFv signal in presence of CD28” value was 0.338.
MDWCPRYLWAECFY [Phage-102] was tested, and the “CD28 scFv signal in presence of CD28” value was 0.354.
For MDWCPRDLWHECFN [Phage-103], the “CD28 scFv signal in presence of CD28” value was 0.218.
MDWCPRDLWAECFN [Phage-107] was tested, and the “CD28 scFv signal in presence of CD28” value was 0.207.
With MDWCPIYLWDECFN [Phage-106] the “CD28 scFv signal in presence of CD28” value was 0.215.
For MDWCPRDLWDLCFF [Phage-104], the “CD28 scFv signal in presence of CD28” value was 0.156.

What follows are binders tested against T2, PSMA Fab (assay: competition ELISA; peptide 0-100 µM with 0.3 nM PSMA Fab on plate-captured biotinylated PSMA).
T2 construct: also called 006 PSMA Fab; anti-PSMA Fab
B1 gave an IC50 of 2220 nM.
Binder B2 has an IC50 of 1020 nM.
B3 showed an IC50 of 6650 nM.

Target: T2, PSMA Fab
Assay: as above
Remark: another data set of the same source
With ISKWCIPEWMCTSP [Peptide-237] the IC50 was 2700 nM.
LEKLCKPAWMCVNF [Peptide-238] was tested, and the IC50 was 1550 nM.
Binder FVPLCKPAWMCSFV [Peptide-218] has an IC50 of 2850 nM.
LEKLCIPAWMCEWL [Peptide-215] gave an IC50 of 2940 nM.
VVKACIPTWMCQFV [Peptide-229] gave an IC50 of 4070 nM.
With DLRLCKPAWMCYFI [Peptide-223] the IC50 was 1470 nM.
With DLRLCKPAWMCDFI [Peptide-231] the IC50 was 1270 nM.
In the case of LEKTCIPTWMCVGF [Peptide-234], the IC50 is reported as 2080 nM.
In the case of VLKWCRPAWMCEVL [Peptide-216], the IC50 is reported as 2910 nM.
For EFKWCIPSWMCHET [Peptide-228], the IC50 was 1920 nM.
FEKLCVPKWMCEGI [Peptide-220] was tested, and the IC50 was 1570 nM.
WEKLCTPAWMCVGF [Peptide-214] gave an IC50 of 3540 nM.
With LTKLCIPDWMCSEF [Peptide-226] the IC50 was 2680 nM.
VGKLCVPEWMCVGL [Peptide-217] was tested, and the IC50 was 2490 nM.
In the case of FEKWCTPPWMCSLF [Peptide-222], the IC50 is reported as 4160 nM.
In the case of EGIRCTPIWMCEGF [Peptide-224], the IC50 is reported as 1880 nM.
IDKLCIPFWMCENL [Peptide-221] was tested, and the IC50 was 2130 nM.

Each binder was assayed against T3, Anti-CD28 scFv (VH - linker 1 - VL) (biotinylated (site not stated)) (assay: phage binding ELISA on captured anti-CD28 scFv; wells pre-incubated with soluble CD28 protein (competitor)).
T3 sequence (scFv, as listed by the source): as above
In the case of MAWCPVYLWHECFN (peptide, not shown: large carriers) [Phage-47 clonal phage peptide], the “CD28 scFv signal in presence of CD28” value is reported as 0.351.
B4 was tested, and the “CD28 scFv signal in presence of CD28” value was 0.107.
For B5, the “CD28 scFv signal in presence of CD28” value was 0.177.
With MDWCPIDMWDQCFN (peptide, not shown: large carriers) [Phage-40 clonal phage peptide] the “CD28 scFv signal in presence of CD28” value was 0.297.
For MDWCPMYLWNECFN (peptide, not shown: large carriers) [Phage-65 clonal phage peptide], the “CD28 scFv signal in presence of CD28” value was 0.471.
For MAWCPRDKWSECFS (peptide, not shown: large carriers) [Phage-41 clonal phage peptide], the “CD28 scFv signal in presence of CD28” value was 0.147.
For B6, the “CD28 scFv signal in presence of CD28” value was 0.122.
In the case of MVSCPTTMWNRCFN (peptide, not shown: large carriers) [Phage-61 clonal phage peptide], the “CD28 scFv signal in presence of CD28” value is reported as 0.072.
In the case of MHWCPMDQWSNCFN (peptide, not shown: large carriers) [Phage-56 clonal phage peptide], the “CD28 scFv signal in presence of CD28” value is reported as 0.084.
In the case of MDWCPRHLWVHCFN (peptide, not shown: large carriers) [Phage-42 clonal phage peptide], the “CD28 scFv signal in presence of CD28” value is reported as 0.254.
B7 was tested, and the “CD28 scFv signal in presence of CD28” value was 0.284.
For MHWCPIDLWAECYA (peptide, not shown: large carriers, cysteine pairing not given here; also: displayed on phage, fused to pIII) [Phage-46 clonal phage peptide], the “CD28 scFv signal in presence of CD28” value was 0.225.
With MHWCPIDRWADCFN (peptide, not shown: large carriers) [Phage-58 clonal phage peptide] the “CD28 scFv signal in presence of CD28” value was 0.077.
With MDWCPRPLWHECFS (peptide, not shown: large carriers) [Phage-45 clonal phage peptide] the “CD28 scFv signal in presence of CD28” value was 0.121.
For MDWCPSYLWNECFF (peptide, not shown: large carriers) [Phage-62 clonal phage peptide], the “CD28 scFv signal in presence of CD28” value was 0.133.
In the case of B8, the “CD28 scFv signal in presence of CD28” value is reported as 0.081.
In the case of B9, the “CD28 scFv signal in presence of CD28” value is reported as 0.1.
For MDWCPIALWAECFN (peptide, not shown: large carriers) [Phage-44 clonal phage peptide], the “CD28 scFv signal in presence of CD28” value was 0.224.
With MDWCPRALWAECFN (peptide, not shown: large carriers) [Phage-64 clonal phage peptide] the “CD28 scFv signal in presence of CD28” value was 0.339.
With MDWCPRTLWYLCFN (peptide, not shown: large carriers) [Phage-60 clonal phage peptide] the “CD28 scFv signal in presence of CD28” value was 1.2.
For B10, the “CD28 scFv signal in presence of CD28” value was 0.096.
In the case of MDWCPRDSWHLCFA (peptide, not shown: large carriers) [Phage-59 clonal phage peptide], the “CD28 scFv signal in presence of CD28” value is reported as 0.147.
In the case of MDWCPRHRWVDCFY (peptide, not shown: large carriers) [Phage-57 clonal phage peptide], the “CD28 scFv signal in presence of CD28” value is reported as 0.11.
With IDWCPRYLWDECYN (peptide, not shown: large carriers) [Phage-48 clonal phage peptide] the “CD28 scFv signal in presence of CD28” value was 0.153.

The binders below were run against T3, Anti-CD28 scFv (VH - linker 1 - VL) (assay: phage binding ELISA; biotinylated anti-CD28 scFv on neutravidin plate, clonal phage supernatant, anti-M13 HRP detection).
Description: Clonal phage were harvested as crude supernatants and screened via standard enzyme linked immunosorbent assays (ELISAs). […] Prior to the addition of clonal phage, wells were incubated with blocking buffer and CD28 soluble protein or blocking buffer alone. Without washing or aspirating, clonal phage supernatants were then added to the wells and incubated for a short time. Wells were then washed followed by detection of bound phage using a horse radish peroxidase conjugated anti-M13 antibody.
For MAWCPVYLWHECFN (peptide, not shown: large carriers) [Phage-47 clonal phage peptide], the “CD28 scFv signal” value was 2.27.
In the case of B4, the “CD28 scFv signal” value is reported as 1.64.
In the case of B5, the “CD28 scFv signal” value is reported as 1.95.
With MDWCPIDMWDQCFN (peptide, not shown: large carriers) [Phage-40 clonal phage peptide] the “CD28 scFv signal” value was 2.66.
In the case of MDWCPMYLWNECFN (peptide, not shown: large carriers) [Phage-65 clonal phage peptide], the “CD28 scFv signal” value is reported as 2.61.
For MAWCPRDKWSECFS (peptide, not shown: large carriers) [Phage-41 clonal phage peptide], the “CD28 scFv signal” value was 0.853.
B6 was tested, and the “CD28 scFv signal” value was 1.04.
MVSCPTTMWNRCFN (peptide, not shown: large carriers) [Phage-61 clonal phage peptide] was tested, and the “CD28 scFv signal” value was 1.33.
With MHWCPMDQWSNCFN (peptide, not shown: large carriers) [Phage-56 clonal phage peptide] the “CD28 scFv signal” value was 0.515.
With MDWCPRHLWVHCFN (peptide, not shown: large carriers) [Phage-42 clonal phage peptide] the “CD28 scFv signal” value was 2.5.
In the case of B7, the “CD28 scFv signal” value is reported as 2.06.
For MHWCPIDLWAECYA (peptide, not shown: large carriers, cysteine pairing not given here; also: displayed on phage, fused to pIII) [Phage-46 clonal phage peptide], the “CD28 scFv signal” value was 2.28.
With MHWCPIDRWADCFN (peptide, not shown: large carriers) [Phage-58 clonal phage peptide] the “CD28 scFv signal” value was 0.287.
With MDWCPRPLWHECFS (peptide, not shown: large carriers) [Phage-45 clonal phage peptide] the “CD28 scFv signal” value was 2.35.
MDWCPSYLWNECFF (peptide, not shown: large carriers) [Phage-62 clonal phage peptide] was tested, and the “CD28 scFv signal” value was 2.
B8 was tested, and the “CD28 scFv signal” value was 0.074.
For B9, the “CD28 scFv signal” value was 1.64.
For MDWCPIALWAECFN (peptide, not shown: large carriers) [Phage-44 clonal phage peptide], the “CD28 scFv signal” value was 2.46.
For MDWCPRALWAECFN (peptide, not shown: large carriers) [Phage-64 clonal phage peptide], the “CD28 scFv signal” value was 2.68.
MDWCPRTLWYLCFN (peptide, not shown: large carriers) [Phage-60 clonal phage peptide] was tested, and the “CD28 scFv signal” value was 2.59.
With B10 the “CD28 scFv signal” value was 1.5.
MDWCPRDSWHLCFA (peptide, not shown: large carriers) [Phage-59 clonal phage peptide] was tested, and the “CD28 scFv signal” value was 2.45.
In the case of MDWCPRHRWVDCFY (peptide, not shown: large carriers) [Phage-57 clonal phage peptide], the “CD28 scFv signal” value is reported as 0.478.
In the case of IDWCPRYLWDECYN (peptide, not shown: large carriers) [Phage-48 clonal phage peptide], the “CD28 scFv signal” value is reported as 2.24.
